{"source": "patent US20230399385A1", "about": "(NANJING VAZYME BIOTECH, published 2023)", "binders": {"B1": {"name": "Antibody 5-10 (antibody, V domains shown)", "VH": "EVQLLESGGGLVQPGGSLRLSCAASGFTFSSYAMSWVRQAPGKGLEWVSAIVGSGGSTYYADSVKGRFIISRDNSKNTLYLQMNSLRAEDTAVYYCAKSLIYGHYDILTGAYYFDYWGQGTLVTVSS", "VL": "DIQMTQSPSSVSASVGDRVTIPCRASQGIGNWLAWYQQKPGKAPKLLIYAASSLQSGVPSRFSGSGSGTDFTLTISSLQPEDFATYYCQQANSFPPFGQGTRLEIK", "notes": "also called anti-SARS-CoV-2 RBD Antibody 5-10; monoclonal Antibody 5-10"}}, "key": {"[1]": {"target": "SARS-CoV-2 spike (S) glycoprotein, wild-type, on pseudotyped virus (SARS-CoV-2, UniProt P0DTC2 14-1273)", "test": "cell-based or functional assay"}, "[2]": {"target": "T1, SARS-CoV-2 RBD (receptor binding domain of the spike protein of SARS-CoV-2; Vazyme Biotech) (SARS-CoV-2, UniProt P0DTC2 319-541)", "test": "biolayer interferometry, ForteBio Octet RED96e, RBD 100 nM to 3.13 nM, 1:1 Langmuir model"}, "[3]": {"target": "T1, SARS-CoV-2 RBD (receptor binding domain …)", "test": "method not stated in this sentence (summary of Example 1); biolayer interferometry in Example 2"}, "[4]": {"target": "T1, SARS-CoV-2 RBD (receptor binding domain …)", "test": "HTRF ACE2/RBD binding assay (665/620 ratio): Antibody 5-10 titrated, blocked ligand ACE2"}, "[5]": {"target": "T1, SARS-CoV-2 RBD (receptor binding domain …)", "test": "ELISA: SARS-CoV-2 RBD coated on the plate, Antibody 5-10 titrated, detected with anti-human IgG-HRP/TMB, OD450"}}}
{"binder": "B1", "values": [{"measurement": "IC50, neutralizing effects on SARS-CoV-2 pseudovirus", "setting": "[1]", "value": 0.0425, "unit": "µg/mL"}, {"measurement": "Kd", "setting": "[2]", "value": 4.32, "unit": "nM"}, {"measurement": "Kd", "setting": "[3]", "value": 4.31, "unit": "nM"}, {"measurement": "IC50", "setting": "[4]", "value": 0.231, "unit": "µg/mL"}, {"measurement": "EC50", "setting": "[5]", "value": 0.0269, "unit": "µg/mL"}]}
